# According to the FLAb antibody collection (doi:10.1101/2023.12.08.570889):
# Biological target: IL36R
# Experiment: Kd (SPR)
row,Kd,Binder
1,3.28 nM,unnamed (protein) chain 1: QVQLVQSGAEVKKPGASVKVSCKASGYSFTSSWIHWVKQAPGQGLEWMGEINPGNVRTNYNENFRNKVTMTVDTSISTAYMELSRLRSDDTAVYYCTRVRFGEPYFDYWGQGTLVTVSS chain 2: QIVLTQSPGTLSLSPGERATMTCTASSSVSSSYFHWYQQKPGQAPRLWIYRTSRLASGVPDRFSGSGSGTDFTLTISRLEPEDAATYYCHQFHRSPLTFGAGTKLEIK
2,1.61 nM,unnamed (protein) chain 1: QVQLVQSGAEVKKPGASVKVSCKASGYSFTSSWIHWVKQAPGQGLEWMGEINPGNVRTNYNENFRNKVTMTVDTSISTAYMELSRLRSDDTAVYYCTRVQFGEPYFDYWGQGTLVTVSS chain 2: QIVLTQSPGTLSLSPGERATMTCTASSSVSSSYFHWYQQKPGQAPRLWIYRTSRLASGVPDRFSGSGSGTDFTLTISRLEPEDAATYYCHQFHRSPLTFGAGTKLEIK
3,1.04 nM,unnamed (protein) chain 1: QVQLVQSGAEVKKPGASVKVSCKASGYSFTSSWIHWVKQAPGQGLEWMGEINPGNVRTNYNENFRNKVTMTVDTSISTAYMELSRLRSDDTAVYYCTRVRYGYPWFDYWGQGTLVTVSS chain 2: QIVLTQSPGTLSLSPGERATMTCTASSSVSSSYFHWYQQKPGQAPRLWIYRTSRLASGVPDRFSGSGSGTDFTLTISRLEPEDAATYYCHQFHRSPLTFGAGTKLEIK
4,0.759 nM,unnamed (protein) chain 1: QVQLVQSGAEVKKPGASVKVSCKASGYSFTSSWIHWVKQAPGQGLEWMGEINPGNVRTNYNENFRNKVTMTVDTSISTAYMELSRLRSDDTAVYYCTRVSYGEPYFDYWGQGTLVTVSS chain 2: QIVLTQSPGTLSLSPGERATMTCTASSSVSSSYFHWYQQKPGQAPRLWIYRTSRLASGVPDRFSGSGSGTDFTLTISRLEPEDAATYYCHQFHRSPLTFGAGTKLEIK
5,12.3 nM,unnamed (protein) chain 1: QVQLVQSGAEVKKPGASVKVSCKASGYSFTSSWIHWVKQAPGQGLEWMGEINPGNVRTNYNENFRNKVTMTVDTSISTAYMELSRLRSDDTAVYYCTRIRYGEPYFDYWGQGTLVTVSS chain 2: QIVLTQSPGTLSLSPGERATMTCTASSSVSSSYFHWYQQKPGQAPRLWIYRTSRLASGVPDRFSGSGSGTDFTLTISRLEPEDAATYYCHQFHRSPLTFGAGTKLEIK
6,0.888 nM,unnamed (protein) chain 1: QVQLVQSGAEVKKPGASVKVSCKASGYSFTSSWIHWVKQAPGQGLEWMGEINPGNVRTNYNENFRNKVTMTVDTSISTAYMELSRLRSDDTAVYYCTRVRYGEPWFDYWGQGTLVTVSS chain 2: QIVLTQSPGTLSLSPGERATMTCTASSSVSSSYFHWYQQKPGQAPRLWIYRTSRLASGVPDRFSGSGSGTDFTLTISRLEPEDAATYYCHQFHRSPLTFGAGTKLEIK
7,3.16 nM,unnamed (protein) chain 1: QVQLVQSGAEVKKPGASVKVSCKASGYSFTSSWIHWVKQAPGQGLEWMGEINPGNVRTNYNENFRNKVTMTVDTSISTAYMELSRLRSDDTAVYYCTRVMYGEPYFDYWGQGTLVTVSS chain 2: QIVLTQSPGTLSLSPGERATMTCTASSSVSSSYFHWYQQKPGQAPRLWIYRTSRLASGVPDRFSGSGSGTDFTLTISRLEPEDAATYYCHQFHRSPLTFGAGTKLEIK
8,1.4 nM,unnamed (protein) chain 1: QVQLVQSGAEVKKPGASVKVSCKASGYSFTSSWIHWVKQAPGQGLEWMGEINPGNVRTNYNENFRNKVTMTVDTSISTAYMELSRLRSDDTAVYYCTRVSYGEPWFDYWGQGTLVTVSS chain 2: QIVLTQSPGTLSLSPGERATMTCTASSSVSSSYFHWYQQKPGQAPRLWIYRTSRLASGVPDRFSGSGSGTDFTLTISRLEPEDAATYYCHQFHRSPLTFGAGTKLEIK
9,0.689 nM,unnamed (protein) chain 1: QVQLVQSGAEVKKPGASVKVSCKASGYSFTSSWIHWVKQAPGQGLEWMGEINPGNVRTNYNENFRNKVTMTVDTSISTAYMELSRLRSDDTAVYYCTRVRFGYPWFDYWGQGTLVTVSS chain 2: QIVLTQSPGTLSLSPGERATMTCTASSSVSSSYFHWYQQKPGQAPRLWIYRTSRLASGVPDRFSGSGSGTDFTLTISRLEPEDAATYYCHQFHRSPLTFGAGTKLEIK
10,1.87 nM,unnamed (protein) chain 1: QVQLVQSGAEVKKPGASVKVSCKASGYSFTSSWIHWVKQAPGQGLEWMGEINPGNVRTNYNENFRNKVTMTVDTSISTAYMELSRLRSDDTAVYYCTRVQYGYPYFDYWGQGTLVTVSS chain 2: QIVLTQSPGTLSLSPGERATMTCTASSSVSSSYFHWYQQKPGQAPRLWIYRTSRLASGVPDRFSGSGSGTDFTLTISRLEPEDAATYYCHQFHRSPLTFGAGTKLEIK
